Reference: patent publication US20080075733A1

Molecular target: Fc receptor on THP-1 cells
Test: cell-based or functional assay

TNF-α secretion from THP-1 cells on coated wells (10 µg/well, heat aggregated): > 40 ng/well
Substance: human IgG1 (heat aggregated, coated on wells) (antibody)
